Laboratory results reported in patent US20240262926A1 (published 2024).

T1: recombinant monkey TfR (r monkey TfR: Sino Biological Inc.) (cynomolgus monkey (Macaca fascicularis), UniProt Q5RDH6 89-760 (Pongo abelii entry))
T1 construct: Bought product; also called r monkey TfR-ECD (Histag); cynomolgus monkey TfR; not shown: histidine tag attached to the N-terminus
T1 chain: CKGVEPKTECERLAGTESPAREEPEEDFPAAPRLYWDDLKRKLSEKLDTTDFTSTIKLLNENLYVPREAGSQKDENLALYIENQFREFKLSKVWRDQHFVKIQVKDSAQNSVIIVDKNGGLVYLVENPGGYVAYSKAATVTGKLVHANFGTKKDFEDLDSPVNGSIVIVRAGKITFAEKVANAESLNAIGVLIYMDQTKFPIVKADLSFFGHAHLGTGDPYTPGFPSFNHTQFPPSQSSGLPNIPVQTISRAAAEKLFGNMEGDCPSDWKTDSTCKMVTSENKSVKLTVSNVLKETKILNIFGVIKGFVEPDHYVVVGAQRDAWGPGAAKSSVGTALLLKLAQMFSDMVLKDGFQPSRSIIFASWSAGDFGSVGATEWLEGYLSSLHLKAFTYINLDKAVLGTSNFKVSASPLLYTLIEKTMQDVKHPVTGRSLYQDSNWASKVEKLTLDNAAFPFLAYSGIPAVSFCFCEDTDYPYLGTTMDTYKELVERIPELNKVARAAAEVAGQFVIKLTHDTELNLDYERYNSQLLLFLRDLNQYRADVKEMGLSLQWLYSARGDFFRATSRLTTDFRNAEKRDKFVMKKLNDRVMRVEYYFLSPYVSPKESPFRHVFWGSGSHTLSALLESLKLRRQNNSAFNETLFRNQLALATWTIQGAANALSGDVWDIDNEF


What was measured:
[1] = molecular target: T1, recombinant monkey TfR (r monkey TfR: …); experiment: BLI (Octet RED96), His-tagged TfR ECD loaded on Ni-NTA sensor, antibody as analyte
Method: (§1) By measuring the variations of this shift between the interfering waves, determination of the number of the molecules bound to the layer of the biomolecules immobilized to the sensor tip surface and kinetic analysis of it can be performed in real time. The measurement was performed according generally to the operating manual attached to Octet RED96. As a human TfR, a recombinant human TfR (r human TfR: Sino Biological Inc.) was used, which had the amino acid sequence of the hTfR extracellular region, i.e., the cysteine residue at the position 89th from the N-terminal side to the phenylalanine at the C-terminus, of the amino acid sequence set forth as SEQ ID NO:1, with a histidine tag attached to the N-terminus. As a monkey TfR, a recombinant monkey TfR (r monkey TfR: Sino Biological Inc.) was used, which had the amino acid sequence of the cynomolgus monkey TfR extracellular region, i.e., the cysteine residue at the position 89th from the N-terminal side to the phenylalanine at the C-terminus, of the amino acid sequence set forth as SEQ ID NO:2, with a histidine tag attached to the N-terminus.
(§2) Each of the antibodies (anti-hTfR antibody Nos. 1 to 14) purified above was subjected to 2-fold dilution steps with HBS-P+(10 mM HEPES containing 150 mM NaCl, 50 μM EDTA and 0.05% Surfactant P20) to prepare antibody solutions of 7 different concentrations, 0.78125 to 50 nM (0.117 to 7.5 μg/mL). These antibody solutions were used as the sample solutions. The r human and r monkey TfRs were respectively diluted with HBS-P+ to prepare 25 μg/mL solutions, which were used as r human TfR-ECD (Histag) solution and r monkey TfR-ECD (Histag) solution, respectively.
(§3) Each of the sample solutions prepared above by 2-fold dilution steps was added, 200 μL/well, to a 96-well plate, black (Greiner Bio-One Inc.). Each of the r human TfR-ECD (Histag) solution and the r monkey TfR-ECD (Histag) solutions prepared above was added, 200 μL/well, to predetermined wells. To respective wells for baseline, dissociation and washing were added HBS-P+, 200 μL/well. To wells for regeneration were added 10 mM Glycine-HCl, pH 1.7, 200 μL/well. To wells for activation was added 0.5 mM NiCl₂ solution, 200 μL/well. The plate and biosensor (Biosensor/Ni-NTA: ForteBio Inc., a division of Pall Corporation) were set in the prescribed positions of Octet RED96.

[2] = molecular target: T2, recombinant human TfR (r human TfR: Sino Biological Inc.) (human, UniProt P02786 89-760); experiment: as above
T2 construct: Bought product; also called r human TfR-ECD (Histag); hTfR; not shown: histidine tag attached to the N-terminus
Method: as §1, §2, §3

Binder	Kd [1]	koff [1]	kon [1]	Kd [2]	koff [2]	kon [2]
anti-hTfR antibody No. 12 (antibody, V domains shown, Mouse hybridoma antibody purified on Protein G; also called mouse anti-hTfR antibody No. 12; product of Clone 12 line) VH: EVQLQESGAELARPGTSVKVSCKAAGYVFINYLIEWVKQRPGQGLEWIGVIHSGSGGTNYNDNFKDKATLTRDVSSSTAYMQLSSLTSDDSAVYFCARRNFGNYYFDYWGQGTTLTVSS VL: DIVLTQSHKFMSTVIGDRVSITCKASHDVKTAVAWYQQTPGQSPKLLTYWSSTRHTGVPDRFTGSGSGTDYTLTISSVQAEDLALYYCQQHFSTPLTFGAGTKLELK	0.249 nM	0.000126 s⁻¹	505000 M⁻¹ s⁻¹	0.432 nM	0.000723 s⁻¹	754000 M⁻¹ s⁻¹
anti-hTfR antibody No. 2 (antibody, V domains shown, Mouse hybridoma antibody purified on Protein G; also called mouse anti-hTfR antibody No. 2; product of Clone 2 line) VH: EVQLQESGAELVRPGVSVKISCKGSGYTFTDYVMHWVRQSHAKSLEWIGVISTYYGHGSYNQRFKGKATMTVDKSSSTAYLELVRLTSEDSAIYYCVRGGYGSSSLAGNFDVWGAGTTVTVSS VL: DIVLTQSPATLSVTPGDSVSLSCRASQSISNNLQWYQQKSHESPRLLIKYASQSISGIPSRFSGSGSGTDFTLSINSVETEDFGMYFCQQSNSWPRTFGAGTKLELKR	–	–	–	0.0112 nM	1.23e-05 s⁻¹	1.11e+06 M⁻¹ s⁻¹
anti-hTfR antibody No. 4 (antibody, V domains shown, Mouse hybridoma antibody purified on Protein G; also called mouse anti-hTfR antibody No. 4; product of Clone 4 line) VH: EVQLQESGAELVRPGTSVRVFCKASGYAFTNYLIEWVKQRPGQGLEWIGLINPGSGGIIYNEKFTDRATLTADKSSSTAYMQLSSLTSDDSAVYFCARSNYYGTTYWHFDVWGAGTTVTVSS VL: DIVLTQTPAIMSASPGEKVTMTCSASSNVNYMHWYQQKSSTSPKLWIYDTSKLASGVPGRFSGSGSGNSYSLTISSMEAEDVATYYCFQGNGNPYTFGGGTKLEIK	0.161 nM	0.000121 s⁻¹	754000 M⁻¹ s⁻¹	0.12 nM	0.000229 s⁻¹	1.91e+06 M⁻¹ s⁻¹
anti-hTfR antibody No. 6 (antibody, V domains shown, Mouse hybridoma antibody purified on Protein G; also called mouse anti-hTfR antibody No. 6; product of Clone 6 line) VH: EVQLQESGPGLVAPSQSLSITCSVSGFSLSTYGVYWVRQPPGKGLEWLGIIWGDGSTNYHSALISRLTISKDNSKSQVFLKLNSLQTADTATYYCAKPDDVWGAGTTVTVSS VL: DIVLTQTPSSLSASLGERVSLTCRASQEISGYLSWLQQKPDGTIKRLIYAASTLDSGVPKRFSGSRSGSDYSLTISSLESEDFADYYCLQYSSYPRTFGGGTKLEIK	0.123 nM	0.000236 s⁻¹	495000 M⁻¹ s⁻¹	0.958 nM	0.000723 s⁻¹	754000 M⁻¹ s⁻¹
anti-hTfR antibody No. 10 (antibody, V domains shown, Mouse hybridoma antibody purified on Protein G; also called mouse anti-hTfR antibody No. 10; product of Clone 10 line) VH: EVQLQESGGGLVKPGGSLKLSCEASGITFRNYAMSWVRQTPEKRLEWVATISSYGGYTYYADSVKGRFTVSRDNAGNTLYLQMSSLRSEDTAMYHCARQEVPYPYPMDNWGQGTSVIVSS VL: DIVMTQTPSSLSASLGERVSLTCRPSQEISGYLSWLQQKPDGTIKRLIYAASTLDSGVPKRFSGSRSGSDYSLTISSLESEDFADYYCLQYASYPRTFGGGTKLEIK	31.6 nM	0.0122 s⁻¹	387000 M⁻¹ s⁻¹	1.13 nM	0.000766 s⁻¹	679000 M⁻¹ s⁻¹
anti-hTfR antibody No. 11 (antibody, V domains shown, Mouse hybridoma antibody purified on Protein G; also called mouse anti-hTfR antibody No. 11; product of Clone 11 line) VH: EVQLQESGAELVRPGSSVKISCKASGYAFSIYWINWLKQRPGQGLEWIGQIYPGNGDTNYNGKFKGKATLTADKSSNTVYMRLSSLTSEDSAVYFCGRWGDDYAMDFWGQGTSVTVSS VL: DIVLTQSPATLSVTPGDRVSLSCRASQSIRNYLHWYQQKSHESPRLLIKYASQSISGIPSRFSGSGSGTDFTLSINSVETEDFGMYFCQQTNSWPYTFGGGTKLEIK	3.38 nM	0.000421 s⁻¹	124000 M⁻¹ s⁻¹	0.0837 nM	2.28e-05 s⁻¹	272000 M⁻¹ s⁻¹
anti-hTfR antibody No. 13 (antibody, V domains shown, Mouse hybridoma antibody purified on Protein G; also called mouse anti-hTfR antibody No. 13; product of Clone 13 line) VH: EVQLQESGAELVRPGSSVKISCKASGYAFSIYWINWLKQRPGQGLEWIGQIYPGNGDTNYNGKFKGKATLTADKSSNTVYMRLSSLTSEDSAVYFCGRWGDDYAMDFWGQGTSVTVSS VL: DIVITQTPATLSVTPGDRVSLSCRASQSIRNYLHWYQQKSHESPRLLIKYASQSISGIPSRFSGSGSGTDFTLTINSVETEDFGMYFCQQTNSWPYTFGGGTKLEIK	0.123 nM	7.29e-05 s⁻¹	591000 M⁻¹ s⁻¹	< 0.001 nM	< 1e-07 s⁻¹	835000 M⁻¹ s⁻¹
anti-hTfR antibody No. 7 (antibody, V domains shown, Mouse hybridoma antibody purified on Protein G; also called mouse anti-hTfR antibody No. 7; product of Clone 7 line) VH: EVQLQESGGALVKPGGSLKVSCEASGITFRNYFMSWVRQTPEKRLEWVATISSAGGYTYYADSVKGRFTISRDNAGNTLYLQMSSLRSEDTAMYFCARQEVPYPYAMDYWGQGTSVIVSS VL: DIVLTQSPVIMSASLGEEITLTCSASSSVNYIHWYQQKSGTSPKVLIYQTSNLASGVPSRFSGSRSGTFYSLKISSVEAEDAADYYCHQWSSYPWTFGGGTKLEIK	0.0171 nM	4.54e-06 s⁻¹	266000 M⁻¹ s⁻¹	0.0822 nM	3.03e-05 s⁻¹	369000 M⁻¹ s⁻¹
anti-hTfR antibody No. 8 (antibody, V domains shown, Mouse hybridoma antibody purified on Protein G; also called mouse anti-hTfR antibody No. 8; product of Clone 8 line) VH: EVQLQESGPGLVAPSQSLSITCTVSGFSLTTYGVSWIRQPPGKGLEWLGIIWGDGSTNYRSALISRLSISKDNSKNQVFLKLNSLQTDDTATYYCAKPDDYWGQGTSVTVSS VL: DIVLTQSPAIMSASLGEEITLTCSASSSVSYMHWYQQKSGTSPKVLIYGTSNLASEVPSRFSGSGSGTFYSLTISSVEAEDAADYYCHQWSSYPWTFGGGTKLEIK	9.18 nM	0.00507 s⁻¹	552000 M⁻¹ s⁻¹	< 0.001 nM	< 1e-07 s⁻¹	696000 M⁻¹ s⁻¹
anti-hTfR antibody No. 1 (antibody, V domains shown, Mouse hybridoma antibody purified on Protein G; also called mouse anti-hTfR antibody No. 1; product of Clone 1 line) VH: EVQLQESGGGLVQPGGSLKLSCAASGLTFSNYGMSWIRQTPDKRLELVANINTNGGSTYYPDSVKGRFTISRDNAKNTLYLQMNSLKSEDTAIYYCTNNRYDEDYWGQGTSVTVSS VL: DIVLTQSSKFMSTSVGDRVSITCKASQDVNSAVAWFQQKPGQSPKLLIYWTSTRHTGVPDRFTGSGSGTVYTLTISSVQAEDLALYYCQQHYSTPRTFGGGTKLEIKR	< 0.001 nM	< 1e-07 s⁻¹	280000 M⁻¹ s⁻¹	0.00509 nM	2.55e-06 s⁻¹	500000 M⁻¹ s⁻¹
anti-hTfR antibody No. 9 (antibody, V domains shown, Mouse hybridoma antibody purified on Protein G; also called mouse anti-hTfR antibody No. 9; product of Clone 9 line) VH: EVQLQESGPELKKPGETVKISCKASGYTFTNYGVSWVKQAPGKDLKWMGWIYTFTGEATYIDDFRGRFAFSLETSANTAYLQINNLKNEDTATYFCSRRNGAWFEDWGQGTLVTVSA VL: DIVLTQSPALMSASPGETVTMTCSASSSVSLMFWYQQKPRSSPKPWIYFTSYRASGVPIRFSGSGSGTSFSLTISNLEAEDAATYYCQQWTSDPPTFGSGTKLEIE	–	–	–	0.121 nM	9.46e-05 s⁻¹	782000 M⁻¹ s⁻¹
anti-hTfR antibody No. 5 (antibody, V domains shown, Mouse hybridoma antibody purified on Protein G; also called mouse anti-hTfR antibody No. 5; product of Clone 5 line) VH: EVQLQESGPELVKPGASVKMSCKASGYTFTNFVIHWVKQRPGQGLEWIGFFNPHKNGAEYNEKFQVKATLTSDKSSTTAYMELNSLTSEDSAVYYCARSFYYYSMDYWGQGTSVTVSS VL: DIVMTQTPAIMSASPGEKVTMTCSASSSISSIHWYQQKPGTSPKRWIYDTSTLASGVPVRFSGSGSGTSYSLTISSMEAEDAATYYCHQRSSYPTFGGGTKLEIK	1.46 nM	0.000758 s⁻¹	519000 M⁻¹ s⁻¹	0.0364 nM	2.44e-05 s⁻¹	671000 M⁻¹ s⁻¹
